Experimental data from the supplement of paper PMC7125110.
± gives the standard error. Fewer inactive variants are shown than the library holds.

B1: glmS ribozyme (parent)
chain: AUAAAAGCGCCAGAACUACAGAAAUGUAGUUGACGAGGAGGAGGUUUAUCGAAUUUUCGGCGGAUGCCUCCAAA

Experiments:
Details in all cases: with glucosamine-6-phosphate
glucosamine-6-phosphate [1] = variants of: B1; test: self-cleavage kobs at 640 uM GlcN6P; higher = faster cleavage; RNA array
Outline: (§1)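 The measurements used barcoded ribozyme variants on sequenced MiSeq chips, transcribed in situ by E. coli RNA polymerase and tracked at 37 °C with a hybridised Cy3 probe. Glucosamine-6-phosphate, 40 μM to 10 mM in HEPES/KCl/Mg(OAc)2 buffer, was flowed in while tiles were imaged over ~14 h. Baseline-normalised signals, also normalised to non-cleaving reference variants, gave per-tile medians that were fit to one- or two-exponential decays for kobs. kcat and KM resulted from weighted Michaelis–Menten fits across concentrations.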

glucosamine-6-phosphate [2] = variants of: B1; test: self-cleavage kobs at 2500 uM GlcN6P; higher = faster cleavage; RNA array
Outline: as §1

glucosamine-6-phosphate [3] = variants of: B1; test: self-cleavage kobs at 10000 uM GlcN6P; higher = faster cleavage; RNA array
Outline: as §1

Variant | self-cleavage kobs at 640 uM GlcN6P (glucosamine-6-phosphate [1]) [s⁻¹] | self-cleavage kobs at 2500 uM GlcN6P (glucosamine-6-phosphate [2]) [s⁻¹] | self-cleavage kobs at 10000 uM GlcN6P (glucosamine-6-phosphate [3]) [s⁻¹]
C11U U30G U31C | 9.28e-05 ± 2.1e-05 |  | 
A33G A48C C68U | < 1e-05 |  | 
G44U U47C A48C U69G | < 1e-05 | < 1e-05 | 
A64C U65C | < 1e-05 |  | < 1e-05
C11U A36U G44C G62U | < 1e-05 |  | 
G7C A12U A15C | < 1e-05 |  | 
A14G U31A G41A C71U | 0.000186 ± 7.9e-05 | 0.000396 ± 0.00011 | 
A14G C34U A52C C68U C70U | 8.57e-05 ± 4.2e-05 |  | 
G9C C34U U49C U65G | < 1e-05 |  | 
A15U A33G A64G C67A C70A C71U | 9.67e-05 ± 3.1e-05 |  | 
G32C A42U A53G U57A A64G | < 1e-05 | < 1e-05 | 
A12G A39G C70G | 0.00011 ± 3.5e-05 |  | 
A6U G37C G40A | < 1e-05 | < 1e-05 | 
G9C U65C C68U | < 1e-05 |  | 
G29C G37U U46A | < 1e-05 | < 1e-05 | < 1e-05
U31C G32A U65G | 5.75e-05 ± 1.9e-05 | 0.000133 ± 3.3e-05 | 
G40U G44A C50G C71G | < 1e-05 | < 1e-05 | 
G7C U56G C67U | < 1e-05 |  | 
A6C G37U U49A | < 1e-05 |  | < 1e-05
A39U U46A | 0.000305 ± 7.5e-05 | 0.000711 ± 0.00023 | 0.00219 ± 0.00035
C11U U54G C58A C67G | 0.000225 ± 7.2e-05 | 5.14e-05 ± 2e-05 | 
C11G A48G C71U | < 1e-05 | < 1e-05 | 
C11U U55G C70A | 8.31e-05 ± 3.3e-05 | 0.000101 ± 2.5e-05 | 
U30G A36U A42C A64U C67G | < 1e-05 | < 1e-05 | 
A36U A48U G60U C68A | < 1e-05 | < 1e-05 | 
G7U A53U U65G | < 1e-05 | < 1e-05 | 

Variant | self-cleavage kobs at 640 uM GlcN6P (glucosamine-6-phosphate [1]) [s⁻¹] | self-cleavage kobs at 2500 uM GlcN6P (glucosamine-6-phosphate [2]) [s⁻¹] | self-cleavage kobs at 10000 uM GlcN6P (glucosamine-6-phosphate [3]) [s⁻¹]
G63A G66U C67U | < 1e-05 | < 1e-05 | 
A36U A48C C67G | < 1e-05 | < 1e-05 | 
U30G U56A C68G | 5.24e-05 ± 2.3e-05 |  | 
A6U A36C G51C | < 1e-05 | < 1e-05 | 
C11U A15C U31C | 6.01e-05 ± 2.1e-05 | 0.000159 ± 5e-05 | 
U47G U49A A52G | < 1e-05 |  | 
G13U A15C C58G | 0.00154 ± 0.00048 | 7.7e-05 ± 2.3e-05 | 8.16e-05 ± 1.4e-05
G9A C10G G29U G62A | < 1e-05 |  | 
G29A G32A U57C U69C | 9.71e-05 ± 3.8e-05 |  | 
C10G A12U U46A | < 1e-05 |  | 
C11G G37C A39G | < 1e-05 | < 1e-05 | 
G13U G43C A64G | < 1e-05 |  | 
G29A G35U | < 1e-05 | < 1e-05 | < 1e-05
G29C G51U | < 1e-05 |  | 
C34U G38U G43C | < 1e-05 |  | 
G9C C16G G38U U65A | < 1e-05 | < 1e-05 | 
G7A C11G A15C C50A U54C | < 1e-05 | < 1e-05 | 
U30C C34U U57A | < 1e-05 |  | 
A15U U55C C70U | 4.5e-05 ± 2.2e-05 | 9.45e-05 ± 3.3e-05 | 
C8G A14U U49G A53U C61U | < 1e-05 |  | 
G29A G40C | 5.68e-05 ± 1.5e-05 | 0.000243 ± 4.7e-05 | 
A6U C10G A53C G62U | < 1e-05 | < 1e-05 | 
A52G U55G G63U | < 1e-05 | 0.000758 ± 0.0003 | 
C34G G37C | < 1e-05 |  | < 1e-05
G29C A39C C61G | < 1e-05 |  | 
G35C G37U | < 1e-05 |  | 

Variant | self-cleavage kobs at 640 uM GlcN6P (glucosamine-6-phosphate [1]) [s⁻¹] | self-cleavage kobs at 2500 uM GlcN6P (glucosamine-6-phosphate [2]) [s⁻¹] | self-cleavage kobs at 10000 uM GlcN6P (glucosamine-6-phosphate [3]) [s⁻¹]
G40U G59C C71U | < 1e-05 | < 1e-05 | 
A14G G29C A33C | < 1e-05 |  | 
A6G U49A | < 1e-05 |  | < 1e-05
A14U C16A G66A | 3.92e-05 ± 1.7e-05 | 0.000107 ± 2.6e-05 | 
C11A C16G A42U U56G C71U | < 1e-05 | < 1e-05 | 
G9U U31A | < 1e-05 | < 1e-05 | < 1e-05
G7A A15U U56G C58A | < 1e-05 |  | 
C8U U47C C67G | < 1e-05 |  | 
G7A G38A G63U C70G | 0.000112 ± 3.6e-05 |  | 
G9C A33U C34G U56A | < 1e-05 |  | 
A42U U46G A48C | < 1e-05 |  | 
A12C U49A A52C | < 1e-05 |  | 
G9C U45A C68A | < 1e-05 | < 1e-05 | 
C8G A33U U46A U69G | < 1e-05 | < 1e-05 | 
A6C G9C G32A C50U A53G | < 1e-05 | < 1e-05 | 
G29A U49A A53G C68A | 7.05e-05 ± 2.9e-05 |  | 
G41A G44U C70A | < 1e-05 |  | 
G32U A33U U45A | < 1e-05 |  | 
C10A C16U C67G | 0.000345 ± 0.00015 |  | 
C8G U57G C70U | < 1e-05 | < 1e-05 | 
C16G G41C G62A A64G | < 1e-05 | < 1e-05 | 
G7A U31G C67U | < 1e-05 |  | 
G13A G37A G66C | < 1e-05 |  | 
G7A C16G A48U G60C C70A | < 1e-05 | < 1e-05 | 
A6C C10U C11A U56C | < 1e-05 | < 1e-05 | 
C8A C16A G32C A42G | < 1e-05 |  | 

Variant | self-cleavage kobs at 640 uM GlcN6P (glucosamine-6-phosphate [1]) [s⁻¹] | self-cleavage kobs at 2500 uM GlcN6P (glucosamine-6-phosphate [2]) [s⁻¹] | self-cleavage kobs at 10000 uM GlcN6P (glucosamine-6-phosphate [3]) [s⁻¹]
C11G G29C A52G U55A C58A | < 1e-05 | < 1e-05 | < 1e-05
G37A G41A A42C U46C | < 1e-05 |  | 
G41U U47G C50G | < 1e-05 |  | 
A14G G29A G32U | 0.000272 ± 0.0001 | 0.000568 ± 0.00014 | 
A52C A53G A64U | < 1e-05 | < 1e-05 | 
C34A U49C C58A | < 1e-05 |  | 
A14U G35A G40C | < 1e-05 |  | 
G7A A53C C68U | < 1e-05 | < 1e-05 | 
G13A A53G G66A | 6.41e-05 ± 2.2e-05 |  | 
C8A G9C G29C G35U | < 1e-05 | < 1e-05 | 
U45A U54A G60A G66C | < 1e-05 |  | 
G29C U30C U49G | < 1e-05 |  | < 1e-05
C10U A12G G32A A42U | < 1e-05 | < 1e-05 | 
G40A A52C G59A C68U | < 1e-05 |  | 
G60U C71A | < 1e-05 | < 1e-05 | < 1e-05
A39U G40U C67A | 0.000118 ± 2.9e-05 | 0.000561 ± 0.00019 | 
C34A G43A G51C U56G | < 1e-05 |  | 
A12G A33C C50A C68G | 0.000144 ± 6.5e-05 | 0.00016 ± 6.5e-05 | 
C11G G41C U45G | < 1e-05 |  | 
G7U A53U A64G | < 1e-05 | < 1e-05 | 
C11U A15U C70G | 0.000134 ± 4.8e-05 |  | 
C11A U56A C70U C71A | 0.000256 ± 7.9e-05 |  | 
G9C G29A G32A | < 1e-05 | < 1e-05 | 
C8U G35A G60C U65G | < 1e-05 |  | 
G7C C58G | < 1e-05 |  | 
U31G G60U U65A | < 1e-05 |  | 

Variant | self-cleavage kobs at 640 uM GlcN6P (glucosamine-6-phosphate [1]) [s⁻¹] | self-cleavage kobs at 2500 uM GlcN6P (glucosamine-6-phosphate [2]) [s⁻¹] | self-cleavage kobs at 10000 uM GlcN6P (glucosamine-6-phosphate [3]) [s⁻¹]
A6C A53U C70U | 6.59e-05 ± 3.2e-05 |  | 
C8G C61U C68U | < 1e-05 | < 1e-05 | 
G40U U49A | < 1e-05 | < 1e-05 | < 1e-05
U47G A48G G63A | < 1e-05 |  | 
C16U A39G U55C | 0.0143 ± 0.0027 |  | 
G29C U65G C67G | 0.000341 ± 0.00016 |  | 
A33G G40C G41C G43A U49A | < 1e-05 | < 1e-05 | 
A14G G32A G60A C61A C67A C70U | 0.000302 ± 0.00012 |  | 
A12U C68A | 7.24e-05 ± 3.4e-05 | 2.89e-05 ± 1.2e-05 | 
G29C G43U A48G C71A | < 1e-05 | < 1e-05 | 
A42U A53U G59C G62C | < 1e-05 | < 1e-05 | 
A6G A12C G43C | < 1e-05 | < 1e-05 | 
A52C U57C C68G C70G | 0.000165 ± 5.4e-05 | 0.000133 ± 5.6e-05 | 
G7A C11A C34U A36C U45A | < 1e-05 | < 1e-05 | < 1e-05
A33C A42C U47G U56G | < 1e-05 |  | 
C16G G35C A48G U57C G62A C67A U69A | < 1e-05 | < 1e-05 | < 1e-05
A33U A39U G41C G43A C70G | < 1e-05 |  | 
G40U C61G U65G | < 1e-05 | < 1e-05 | 
G7C U31C G40C | < 1e-05 | < 1e-05 | 
G41U G44U U45C | < 1e-05 | < 1e-05 | 
G29A A39G U54A | 0.00173 ± 0.00059 | 0.00457 ± 0.0012 | 
U30C U31C G59U C61G C70G | < 1e-05 |  | 
A33U G40U A52U U57G | < 1e-05 | < 1e-05 | 
A6G U31G U45A A53G C61A G66C | < 1e-05 |  | 
U46A C50U U55C | < 1e-05 |  | 
G9U A15C C67U | < 1e-05 |  | 
